Data from patent US20160297884A1 (Pfizer, published 2016).

Assays:
Cynomolgus monkey BCMA = target: T1, Cynomolgus monkey BCMA (cynomolgus monkey); test: SPR, IgG immobilised, cyno BCMA analyte
T1 construct: Soluble analyte in SPR; also called cyBCMA; Cyno BCMA
Description: (§1) All experiments were performed on a Bio-Rad Proteon XPR36 surface Plasmon resonance biosensor (Bio-Rad, Hercules, Calif.). […] The analysis temperature for the immobilization was 25° C. and the running buffer was HBS-T+(10 mM HEPES, 150 mM NaCl, 0.05% Tween-20, pH 7.4). Channels were activated in the analyte (horizontal) direction by injecting a mixture of 1 mM ECD and 0.25 mM NHS for 3 minutes at a flow rate of 30 μL/min. IgGs were immobilized on the activated spots by injecting them in the ligand (vertical) direction at 20 μg/mL in 10 mM Acetate pH 4.5 buffer for 1.5 minutes at […]. The activated surfaces were blocked by injecting 1M ethanolamine, pH 8.5 in the analyte direction for 3 minutes at 30 μL/min.
(§2) The analysis temperature for the BCMA binding analysis was 37° C. or 25° C. in a running buffer of HBS-T+, supplemented with 1 mg/mL BSA. A kinetic titration method was employed for the interaction analysis as described in Abdiche, et al. Human BCMA (huBCMA) or cynomolgus monkey BCMA (cyBCMA) analyte was injected in the analyte direction using a series of injections from low to high concentration. The concentrations used were 0.08 nM, 0.4 nM, 2 nM, 10 nM and 50 nM (a 5-membered series, with a 5-fold dilution factor and top concentration of 50 nM). The association time for a given analyte dilution was two minutes. Immediately after the 50 nM BCMA injection, dissociation was monitored for 2 hours.
(§3) The sensorgrams were double-referenced and fit to a 1:1 Langmuir with mass transport kinetic titration model in BIAevaluation Software version 4.1.1 (GE Lifesciences, Piscataway, N.J.).

Human BCMA = target: T2, Human BCMA (human, UniProt Q02223 1-54, limits assumed); test: SPR, IgG immobilised, human BCMA analyte
T2 construct: also called huBCMA; B-cell maturation antigen
T2 sequence (looked up): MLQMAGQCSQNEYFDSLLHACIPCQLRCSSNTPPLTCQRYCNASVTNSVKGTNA
Description: as §1, §2, §3

| Binder | Kd (Cynomolgus monkey BCMA) [nM] | koff (Cynomolgus monkey BCMA) [s⁻¹] | kon (Cynomolgus monkey BCMA) [M⁻¹ s⁻¹] | Kd (Human BCMA) [nM] | koff (Human BCMA) [s⁻¹] | kon (Human BCMA) [M⁻¹ s⁻¹] |
| --- | --- | --- | --- | --- | --- | --- |
| A02_Rd4_0.6nM_C06 (antibody, V domains shown, IgG) VH: EVQLLESGGGLVQPGGSLRLSCAASGFTFSSYAMNWVRQAPGKGLEWVSAISDSGGSAWYADSVKGRFTISRDNSKNTLYLQMNSLRAEDTAVYYCARYWPMSLWGQGTLVTVSS VL: EIVLTQSPGTLSLSPGERATLSCRASQSVSVLYLAWYQQKPGQAPRLLMYDASIRATGIPDRFSGSGSGTDFTLTISRLEPEDFAVYYCQQYQRWPLTFGQGTKVEIK | 0.058 | 0.000105 | 1.81e+06 | 0.021 | 7.37e-05 | 3.49e+06 |
| A02_Rd4_6nM_C19 (antibody, V domains shown, IgG) VH: EVQLLESGGGLVQPGGSLRLSCAASGFTFSSYAMNWVRQAPGKGLEWVSAISDSGGSRWYADSVKGRFTISRDNSKNTLYLQMNSLRAEDTAVYYCARYWPMSDWGQGTLVTVSS VL: EIVLTQSPGTLSLSPGERATLSCRASQSVSVLYLAWYQQKPGQAPRLLMYDASIRATGIPDRFSGSGSGTDFTLTISRLEPEDFAVYYCQQYLAWPLTFGQGTKVEIK | 0.26 | 0.000661 | 2.54e+06 | 0.049 | 0.000148 | 3e+06 |
| A02_Rd4_6nM_C01 (antibody, V domains shown, IgG) VH: EVQLLESGGGLVQPGGSLRLSCAASGFTFSSYAMNWVRQAPGKGLEWVSAITASGGSTYYADSVKGRFTISRDNSKNTLYLQMNSLRAEDTAVYYCARYWPMSLWGQGTLVTVSS VL: EIVLTQSPGTLSLSPGERATLSCRASQSVSAYYLAWYQQKPGQAPRLLMYDASIRATGIPDRFSGSGSGTDFTLTISRLEPEDFAVYYCQQYERWPLTFGQGTKVEIK | 0.401 | 0.000583 | 1.45e+06 | 0.03 | 9.2e-05 | 3.11e+06 |
| A02_Rd4_0.6nM_C26 (antibody, V domains shown, IgG) VH: EVQLLESGGGLVQPGGSLRLSCAASGFTFSSYAMNWVRQAPGKGLEWVSAILMSGGSTYYADSVKGRFTISRDNSKNTLYLQMNSLRAEDTAVYYCARYWPMSLWGQGTLVTVSS VL: EIVLTQSPGTLSLSPGERATLSCGPSQSVSSSYLAWYQQKPGQAPRLLMYDASIRATGIPDRFSGSGSGTDFTLTISRLEPEDFAVYYCQQYQSWPLTFGQGTKVEIK | 0.941 | 0.00256 | 2.71e+06 | 0.061 | 0.000443 | 7.26e+06 |
| A02_Rd4_6nM_C10 (antibody, V domains shown, IgG) VH: EVQLLESGGGLVQPGGSLRLSCAASGFTFSSYAMNWVRQAPGKGLEWVSAISDSGGSCWYADSVKGRFTISRDNSKNTLYLQMNSLRAEDTAVYYCARYWPMTPWGQGTLVTVSS VL: EIVLTQSPGTLSLSPGERATLSCRASQSVEMSYLAWYQQKPGQAPRLLMYDASIRATGIPDRFSGSGSGTDFTLTISRLEPEDFAVYYCQQYAHWPLTFGQGTKVEIK | 0.472 | 0.000898 | 1.9e+06 | 0.07 | 0.000315 | 4.51e+06 |
| A02_Rd4_0.6nM_C10 (antibody, V domains shown, IgG) VH: EVQLLESGGGLVQPGGSLRLSCAASGFTFSSYAMNWVRQAPGKGLEWVSAISGWGGSLPYADSVKGRFTISRDNSKNTLYLQMNSLRAEDTAVYYCARYWPMDSWGQGTLVTVSS VL: EIVLTQSPGTLSLSPGERATLSCRASQSVSAQYLAWYQQKPGQAPRLLMYDASIRATGIPDRFSGSGSGTDFTLTISRLEPEDFAVYYCQQYQRWPLTFGQGTKVEIK | 1.84 | 0.00163 | 883000 | 0.129 | 0.000296 | 2.3e+06 |
| A02_Rd4_6nM_C03 (antibody, V domains shown, IgG) VH: EVQLLESGGGLVQPGGSLRLSCAASGFTFSSYAMNWVRQAPGKGLEWVSAISDSGGSTYYADSVKGRFTISRDNSKNTLYLQMNSLRAEDTAVYYCARYWPMDIWGQGTLVTVSS VL: EIVLTQSPGTLSLSPGERATLSCRASQSVSNLYLAWYQQKPGQAPRLLMYDASIRATGIPDRFSGSGSGTDFTLTISRLEPEDFAVYYCQQYQGWPLTFGQGTKVEIK | 0.158 | 0.000185 | 1.17e+06 | 0.075 | 0.000126 | 1.69e+06 |
| A02_Rd4_6nM_C08 (antibody, V domains shown, IgG) VH: EVQLLESGGGLVQPGGSLRLSCAASGFTFSSYAMNWVRQAPGKGLEWVSAILDSGGSTYYADSVKGRFTISRDNSKNTLYLQMNSLRAEDTAVYYCARYWPMSPWGQGTLVTVSS VL: EIVLTQSPGTLSLSPGERATLSCRASQSVSFLYLAWYQQKPGQAPRLLMYDASIRATGIPDRFSGSGSGTDFTLTISRLEPEDFAVYYCQQYGSWPLTFGQGTKVEIK | 5.07 | 0.0113 | 2.23e+06 | 0.188 | 0.000738 | 3.92e+06 |
| A02_Rd4_6nM_C16 (antibody, V domains shown, IgG; also called P5AC16) VH: EVQLLESGGGLVQPGGSLRLSCAASGFTFSSYAMNWVRQAPGKGLEWVSAISDFGGSTYYADSVKGRFTISRDNSKNTLYLQMNSLRAEDTAVYYCARYWPMDIWGQGTLVTVSS VL: EIVLTQSPGTLSLSPGERATLSCRASQSVSDLYLAWYQQKPGQAPRLLMYDASIRATGIPDRFSGSGSGTDFTLTISRLEPEDFAVYYCQQYQTWPLTFGQGTKVEIK | 0.118 | 0.000158 | 1.34e+06 | 0.09 | 0.000141 | 1.56e+06 |
| A02_Rd4_6nM_C22 (antibody, V domains shown, IgG) VH: EVQLLESGGGLVQPGGSLRLSCAASGFTFSSYAMNWVRQAPGKGLEWVSAVLDSGGSTYYADSVKGRFTISRDNSKNTLYLQMNSLRAEDTAVYYCARYWPMTPWGQGTLVTVSS VL: EIVLTQSPGTLSLSPGERATLSCRASQSVSSSYLAWYQQKPGQAPRLLMYDASIRATGIPDRFSGSGSGTDFTLTISRLEPEDFAVYYCQQYQVWPLTFGQGTKVEIK | 0.176 | 0.000324 | 1.84e+06 | 0.054 | 0.000182 | 3.38e+06 |
| A02_Rd4_0.6nM_C13 (antibody, V domains shown, IgG) VH: EVQLLESGGGLVQPGGSLRLSCAASGFTFSSYAMNWVRQAPGKGLEWVSAISDSGGYRYYADSVKGRFTISRDNSKNTLYLQMNSLRAEDTAVYYCARYWPMSLWGQGTLVTVSS VL: EIVLTQSPGTLSLSPGERATLSCRASQSVSSSYWAWYQQKPGQAPRLLMYDASIRATGIPDRFSGSGSGTDFTLTISRLEPEDFAVYYCQQYESWPLTFGQGTKVEIK | 0.56 | 0.00128 | 2.29e+06 | 0.066 | 0.000566 | 8.53e+06 |
| A02_Rd4_6nM_C04 (antibody, V domains shown, IgG) VH: EVQLLESGGGLVQPGGSLRLSCAASGFTFSSYAMNWVRQAPGKGLEWVSAIMSSGGPLYYADSVKGRFTISRDNSKNTLYLQMNSLRAEDTAVYYCARYWPMALWGQGTLVTVSS VL: EIVLTQSPGTLSLSPGERATLSCRASQSVSALYLAWYQQKPGQAPRLLMYDASIRATGIPDRFSGSGSGTDFTLTISRLEPEDFAVYYCQQYQVWPLTFGQGTKVEIK | 0.381 | 0.000831 | 2.18e+06 | 0.135 | 0.000603 | 4.47e+06 |
| A02_Rd4_6nM_C05 (antibody, V domains shown, IgG) VH: EVQLLESGGGLVQPGGSLRLSCAASGFTFSSYAMNWVRQAPGKGLEWVSAIFASGGSTYYADSVKGRFTISRDNSKNTLYLQMNSLRAEDTAVYYCARYWPMTPWGQGTLVTVSS VL: EIVLTQSPGTLSLSPGERATLSCRASQSVSSSYLAWYQQKPGQAPRLLMYDASIRATGIPDRFSGSGSGTDFTLTISRLEPEDFAVYYCQQYQRWPLTFGQGTKVEIK | 0.95 | 0.00129 | 1.36e+06 | 0.099 | 0.000308 | 3.1e+06 |
| A02_Rd4_0.6nM_C09 (antibody, V domains shown, IgG) VH: EVQLLESGGGLVQPGGSLRLSCAASGFTFSSYAMNWVRQAPGKGLEWVSAISDSGGSMWYADSVKGRFTISRDNSKNTLYLQMNSLRAEDTAVYYCARYWPMSLWGQGTLVTVSS VL: EIVLTQSPGTLSLSPGERATLSCRASQSVSSSYLAWYQQKPGQAPRLLMYDASIRATGIPDRFSGSGSGTDFTLTISRLEPEDFAVYYCQQYQSWPLTFGQGTKVEIK | 0.082 | 0.000174 | 2.13e+06 | 0.018 | 9.75e-05 | 5.5e+06 |
| A02_Rd4_6nM_C07 (antibody, V domains shown, IgG) VH: EVQLLESGGGLVQPGGSLRLSCAASGFTFSSYAMNWVRQAPGKGLEWVSAIGGSGGSLPYADSVKGRFTISRDNSKNTLYLQMNSLRAEDTAVYYCARYWPMDSWGQGTLVTVSS VL: EIVLTQSPGTLSLSPGERATLSCRASQSVSPYYLAWYQQKPGQAPRLLMYDASIRATGIPDRFSGSGSGTDFTLTISRLEPEDFAVYYCQQYERWPLTFGQGTKVEIK | 1.14 | 0.000786 | 691000 | 0.128 | 0.000189 | 1.48e+06 |
